Values of other authors as cited in paper PMC7101603.

Biological target: Activin-A mature (Homo sapiens) (UniProt P08476)

- Kd: 100 nM
Substance: Activin βA pro-peptide pro-peptide (from UniProt P08476)
